The results in this text go back to publication PMC2662861, “An unexpected phosphate binding site in Glyceraldehyde 3-Phosphate Dehydrogenase: Crystal structures of apo, holo and ternary complex of Cryptosporidium parvum enzyme” (BMC Structural Biology, 2009).

Usually stoichiometry N stands for a count of units in the complex or per binding partner.

The data set concerns the molecule itself. The data set is described as follows: crystal structure.

Where a chain is given by its changes, count along the chain named. In names and notes the source's numbering stands.

B1: Cryptosporidium parvum glyceraldehyde 3-phosphate dehydrogenase, wild type (enzyme)
chain: MTATLGINGFGRIGRLVLRACMERNDITVVAINDPFMDVEYMAYLLKYDSVHGNFNGTVEVSGKDLCINGKVVKVFQAKDPAEIPWGASGAQIVCESTGVFTTEEKASLHLKGGAKKVIISAPPKDNVPMYVMGVNNTEYDPSKFNVISNASCTTNCLAPLAKIINDKFGIVEGLMTTVHSLTANQLTVDGPSKGGKDWRAGRCAGNNIIPASTGAAKAVGKVIPALNGKLTGMAIRVPTPDVSVVDLTCKLAKPASIEEIYQAVKEASNGPMKGIMGYTSDDVVSTDFIGCKYSSIFDKNACIALNDSFVKLISWYDNESGYSNRLVDLAVYVASRGL
notes: glyceraldehyde 3-phosphate dehydrogenase of Cryptosporidium parvum; Homotetramer; Crystallised as apoenzyme and, after incubation with 2 mM NAD, as holoenzyme; also called CpGAPDH; C. parvum GAPDH; source: E. coli, purified (Ni-NTA, SP Sepharose cation exchange, Superdex 200); not shown: His6, N-terminal, kept
Take B1: the “stoichiometry N” value was 4.

B2: Cryptosporidium parvum glyceraldehyde 3-phosphate dehydrogenase, C153S active site mutant (enzyme)
chain: B1 chain with C153S
notes: also called C153S mutant CpGAPDH; C153S CpGAPDH; source: E. coli, purified (Ni-NTA, SP Sepharose cation exchange, Superdex 200); not shown: His6, N-terminal, kept
As to B2, the “stoichiometry N” value came to 4.
